Measured values as given in patent US20220280615A1.

Target: Human IgG (polyclonal, Innovative Research) (human)
Assay: depot trapping: polypeptide mixed with fluorescein-labeled human IgG (1 mg/mL), 37 °C, centrifuged, pellet fluorescence; molar ratio 8 or higher

B1: iTEP28-IBD (designed binder)
chain: GVLPGVGGVLPGVGGVLPGVGGVLPGVGGVLPGVGGVLPGVGGVLPGVGGVLPGVGGVLPGVGGVLPGVGGVLPGVGGVLPGVGGVLPGVGGVLPGVGGVLPGVGGVLPGVGGVLPGVGGVLPGVGGVLPGVGGVLPGVGGVLPGVGGVLPGVGGVLPGVGGVLPGVGGVLPGVGGVLPGVGGVLPGVGGVLPGVGGGGGSTTYKLVINGKTLKGETTTKAVDAETAEKAFKQYANDNGVDGVWTYDDATKTFTVTE
percent of IgG in depots: 55%

B2: iTEP56-IBD (designed binder)
chain: GVLPGVGGVLPGVGGVLPGVGGVLPGVGGVLPGVGGVLPGVGGVLPGVGGVLPGVGGVLPGVGGVLPGVGGVLPGVGGVLPGVGGVLPGVGGVLPGVGGVLPGVGGVLPGVGGVLPGVGGVLPGVGGVLPGVGGVLPGVGGVLPGVGGVLPGVGGVLPGVGGVLPGVGGVLPGVGGVLPGVGGVLPGVGGVLPGVGGVLPGVGGVLPGVGGVLPGVGGVLPGVGGVLPGVGGVLPGVGGVLPGVGGVLPGVGGVLPGVGGVLPGVGGVLPGVGGVLPGVGGVLPGVGGVLPGVGGVLPGVGGVLPGVGGVLPGVGGVLPGVGGVLPGVGGVLPGVGGVLPGVGGVLPGVGGVLPGVGGVLPGVGGVLPGVGGVLPGVGGVLPGVGGVLPGVGGVLPGVGGGGGSTTYKLVINGKTLKGETTTKAVDAETAEKAFKQYANDNGVDGVWTYDDATKTFTVTE
percent of IgG in depots: 90%

B3: iTEP112-IBD (designed binder)
chain: GVLPGVGGVLPGVGGVLPGVGGVLPGVGGVLPGVGGVLPGVGGVLPGVGGVLPGVGGVLPGVGGVLPGVGGVLPGVGGVLPGVGGVLPGVGGVLPGVGGVLPGVGGVLPGVGGVLPGVGGVLPGVGGVLPGVGGVLPGVGGVLPGVGGVLPGVGGVLPGVGGVLPGVGGVLPGVGGVLPGVGGVLPGVGGVLPGVGGVLPGVGGVLPGVGGVLPGVGGVLPGVGGVLPGVGGVLPGVGGVLPGVGGVLPGVGGVLPGVGGVLPGVGGVLPGVGGVLPGVGGVLPGVGGVLPGVGGVLPGVGGVLPGVGGVLPGVGGVLPGVGGVLPGVGGVLPGVGGVLPGVGGVLPGVGGVLPGVGGVLPGVGGVLPGVGGVLPGVGGVLPGVGGVLPGVGGVLPGVGGVLPGVGGVLPGVGGVLPGVGGVLPGVGGVLPGVGGVLPGVGGVLPGVGGVLPGVGGVLPGVGGVLPGVGGVLPGVGGVLPGVGGVLPGVGGVLPGVGGVLPGVGGVLPGVGGVLPGVGGVLPGVGGVLPGVGGVLPGVGGVLPGVGGVLPGVGGVLPGVGGVLPGVGGVLPGVGGVLPGVGGVLPGVGGVLPGVGGVLPGVGGVLPGVGGVLPGVGGVLPGVGGVLPGVGGVLPGVGGVLPGVGGVLPGVGGVLPGVGGVLPGVGGVLPGVGGVLPGVGGVLPGVGGVLPGVGGVLPGVGGVLPGVGGVLPGVGGVLPGVGGVLPGVGGVLPGVGGVLPGVGGVLPGVGGVLPGVGGVLPGVGGVLPGVGGVLPGVGGVLPGVGGGGGSTTYKLVINGKTLKGETTTKAVDAETAEKAFKQYANDNGVDGVWTYDDATKTFTVTE
percent of IgG in depots: 90%
